This is an account of results in the Human Domainome abundance scans (Beltran et al. 2025).

± gives the uncertainty stated by the source.

To fix the notation:
B1: Histone-lysine N-methyltransferase SETD2, residues 2382 to 2430; numbered along this chain, Q9BYW2 (parent)
chain: SPPKPKTIVLPPNWKTARDPEGKIYYYHVITRQTQWDPPTWESPGDDAS

The variants in the data set derive from B1. Nature of the data set: abundance fitness (aPCA) (normalised: wild type 0, dead -1); higher = more abundant; growth selection in yeast, the domain comes from the species named. Particulars: Homo sapiens.
For SPPKPKTIVLPPNWKTARDPHGKIYYYHVITRQTQWDPPTWESPGDDAS [E21H], the abundance fitness is -0.737 ± 0.28.
The same measure for SPPKPKTIVLPPNWKTARDPGGKIYYYHVITRQTQWDPPTWESPGDDAS [E21G]: -0.003 ± 0.035; for SPPKPKTIVLPPNWKTARDPKGKIYYYHVITRQTQWDPPTWESPGDDAS [E21K]: 0.134 ± 0.068.
The same measure for SPPKPKTIVLPPNWKTARDPPGKIYYYHVITRQTQWDPPTWESPGDDAS [E21P]: -0.989 ± 0.14; for SPPKPKTIVLPPNWKTARDPWGKIYYYHVITRQTQWDPPTWESPGDDAS [E21W]: -0.345 ± 0.048.
The value for SPPKPKTIVLPPNWKTARDPRGKIYYYHVITRQTQWDPPTWESPGDDAS [E21R] was -0.043 ± 0.053.
With SPPKPKTIVLPPNWKTARDPQGKIYYYHVITRQTQWDPPTWESPGDDAS [E21Q], the abundance fitness was -0.217 ± 0.063.
The same measure for SPPKPKTIVLPPNWKTARDPSGKIYYYHVITRQTQWDPPTWESPGDDAS [E21S]: 0.098 ± 0.039.
With SPPKPKTIVLPPNWKTARDPTGKIYYYHVITRQTQWDPPTWESPGDDAS [E21T], the abundance fitness was -0.229 ± 0.095.
The value for SPPKPKTIVLPPNWKTARDPYGKIYYYHVITRQTQWDPPTWESPGDDAS [E21Y] was -0.552 ± 0.18.
The same measure for SPPKPKTIVLPPNWKTARDPLGKIYYYHVITRQTQWDPPTWESPGDDAS [E21L]: -0.487 ± 0.035.
For SPPKPKTIVLPPNWKTARDPMGKIYYYHVITRQTQWDPPTWESPGDDAS [E21M], the abundance fitness is -0.059 ± 0.06.
For SPPKPKTIVLPPNWKTARDPFGKIYYYHVITRQTQWDPPTWESPGDDAS [E21F], the abundance fitness is -0.115 ± 0.17.
Take SPPKPKTIVLPPNWKTARDPIGKIYYYHVITRQTQWDPPTWESPGDDAS [E21I]: the abundance fitness was -0.316 ± 0.21.
With SPPKPKTIVLPPNWKTARDPVGKIYYYHVITRQTQWDPPTWESPGDDAS [E21V], the abundance fitness is -0.275 ± 0.093.
For SPPKPKTIVLPPNWKTARDPEGNIYYYHVITRQTQWDPPTWESPGDDAS [K23N], the abundance fitness is -0.563 ± 0.14.
With SPPKPKTIVLPPNWKTARDPEGMIYYYHVITRQTQWDPPTWESPGDDAS [K23M], the abundance fitness was -0.514 ± 0.08.
The value for SPPKPKTIVLPPNWKTARDPEGYIYYYHVITRQTQWDPPTWESPGDDAS [K23Y] was -0.316 ± 0.11; that for SPPKPKTIVLPPNWKTARDPEGTIYYYHVITRQTQWDPPTWESPGDDAS [K23T] was -0.147 ± 0.044; that for SPPKPKTIVLPPNWKTARDPEGRIYYYHVITRQTQWDPPTWESPGDDAS [K23R] was 0.029 ± 0.034.
As for SPPKPKTIVLPPNWKTARDPEGVIYYYHVITRQTQWDPPTWESPGDDAS [K23V], the abundance fitness is -0.303 ± 0.054.
With SPPKPKTIVLPPNWKTARDPEGQIYYYHVITRQTQWDPPTWESPGDDAS [K23Q], the abundance fitness was -0.28 ± 0.09.
The value for SPPKPKTIVLPPNWKTARDPEGCIYYYHVITRQTQWDPPTWESPGDDAS [K23C] was -0.402 ± 0.094; that for SPPKPKTIVLPPNWKTARDPEGAIYYYHVITRQTQWDPPTWESPGDDAS [K23A] was -0.288 ± 0.076.
For the variant SPPKPKTIVLPPNWKTARDPEGWIYYYHVITRQTQWDPPTWESPGDDAS [K23W], the abundance fitness is -0.789 ± 0.047.
The value for SPPKPKTIVLPPNWKTARDPEGGIYYYHVITRQTQWDPPTWESPGDDAS [K23G] was -0.243 ± 0.035; that for SPPKPKTIVLPPNWKTARDPEGSIYYYHVITRQTQWDPPTWESPGDDAS [K23S] was -0.279 ± 0.073.
The same measure for SPPKPKTIVLPPNWKTARDPEGHIYYYHVITRQTQWDPPTWESPGDDAS [K23H]: -0.686 ± 0.28; for SPPKPKTIVLPPNWKTARDPEGIIYYYHVITRQTQWDPPTWESPGDDAS [K23I]: -0.447 ± 0.14; for SPPKPKTIVLPPNWKTARDPEGEIYYYHVITRQTQWDPPTWESPGDDAS [K23E]: -0.433 ± 0.12.
The value for SPPKPKTIVLPPNWKTARDPEGFIYYYHVITRQTQWDPPTWESPGDDAS [K23F] was -0.619 ± 0.15; that for SPPKPKTIVLPPNWKTARDPEGDIYYYHVITRQTQWDPPTWESPGDDAS [K23D] was -0.493 ± 0.047.
On to SPPKPKTIVLPPNWKTARDPEGLIYYYHVITRQTQWDPPTWESPGDDAS [K23L], for which the abundance fitness is -0.457 ± 0.035.
On to SPPKPKTIVLPPNWKTARDPEGKGYYYHVITRQTQWDPPTWESPGDDAS [I24G], for which the abundance fitness is -0.578 ± 0.22.
SPPKPKTIVLPPNWKTARDPEGKHYYYHVITRQTQWDPPTWESPGDDAS [I24H]: the abundance fitness was -0.549 ± 0.48.
The value for SPPKPKTIVLPPNWKTARDPEGKAYYYHVITRQTQWDPPTWESPGDDAS [I24A] was -0.253 ± 0.23; that for SPPKPKTIVLPPNWKTARDPEDKIYYYHVITRQTQWDPPTWESPGDDAS [G22D] was -0.128 ± 0.079.
For the variant SPPKPKTIVLPPNWKTARDPERKIYYYHVITRQTQWDPPTWESPGDDAS [G22R], the abundance fitness is -0.607 ± 0.059.
The same measure for SPPKPKTIVLPPNWKTARDPEHKIYYYHVITRQTQWDPPTWESPGDDAS [G22H]: -0.484 ± 0.16; for SPPKPKTIVLPPNWKTARDPECKIYYYHVITRQTQWDPPTWESPGDDAS [G22C]: -0.882 ± 0.17; for SPPKPKTIVLPPNWKTARDPEKKIYYYHVITRQTQWDPPTWESPGDDAS [G22K]: -0.482 ± 0.076.
The same measure for SPPKPKTIVLPPNWKTARDPEWKIYYYHVITRQTQWDPPTWESPGDDAS [G22W]: -0.224 ± 0.093; for SPPKPKTIVLPPNWKTARDPENKIYYYHVITRQTQWDPPTWESPGDDAS [G22N]: -0.555 ± 0.32.
The same measure for SPPKPKTIVLPPNWKTARDPEVKIYYYHVITRQTQWDPPTWESPGDDAS [G22V]: -0.782 ± 0.088.
For the variant SPPKPKTIVLPPNWKTARDPETKIYYYHVITRQTQWDPPTWESPGDDAS [G22T], the abundance fitness was -1.02 ± 0.078.
The value for SPPKPKTIVLPPNWKTARDPESKIYYYHVITRQTQWDPPTWESPGDDAS [G22S] was -0.297 ± 0.07; that for SPPKPKTIVLPPNWKTARDPEMKIYYYHVITRQTQWDPPTWESPGDDAS [G22M] was -0.636 ± 0.14; that for SPPKPKTIVLPPNWKTARDPEFKIYYYHVITRQTQWDPPTWESPGDDAS [G22F] was -0.733 ± 0.36.
The value for SPPKPKTIVLPPNWKTARDPEAKIYYYHVITRQTQWDPPTWESPGDDAS [G22A] was -0.844 ± 0.12; that for SPPKPKTIVLPPNWKTARDPELKIYYYHVITRQTQWDPPTWESPGDDAS [G22L] was -0.593 ± 0.11; that for SPPKPKTIVLPPNWKTARDPEEKIYYYHVITRQTQWDPPTWESPGDDAS [G22E] was -1.1 ± 0.19.
Take SPPKPKTIVLPPNWKTARDPEIKIYYYHVITRQTQWDPPTWESPGDDAS [G22I]: the abundance fitness was -0.753 ± 0.29.
SPPKPKTIVLPPNWKTARDPEQKIYYYHVITRQTQWDPPTWESPGDDAS [G22Q]: the abundance fitness was -0.841 ± 0.18.
